What was measured:
[1] = biological target: GP73-hFc (human GP73 amino acids 63 to 400 fused at the C-terminus to human IgG1 Fc) (human); test: sandwich EIA on GP73-hFc, coated 1A-3187, second antibody NC-Bt
[2] = biological target: GP73-hFc (human GP73 amino acids 63 to 400 fused at the C-terminus to human IgG1 Fc) (human); test: sandwich EIA on GP73-hFc, coated NC, second antibody 1B-3246-Bt
[3] = biological target: GP73-hFc (human GP73 amino acids 63 to 400 fused at the C-terminus to human IgG1 Fc) (human); test: sandwich EIA on GP73-hFc, coated 1A-4246, second antibody NC-Bt
[4] = biological target: GP73-hFc (human GP73 amino acids 63 to 400 fused at the C-terminus to human IgG1 Fc) (human); test: sandwich EIA on GP73-hFc, coated NC, second antibody 1A-3187-Bt
[5] = biological target: GP73-hFc (human GP73 amino acids 63 to 400 fused at the C-terminus to human IgG1 Fc) (human); test: sandwich EIA on GP73-hFc, coated 1B-4863, second antibody NC-Bt
[6] = biological target: GP73-hFc (human GP73 amino acids 63 to 400 fused at the C-terminus to human IgG1 Fc) (human); test: sandwich EIA on GP73-hFc, coated NC, second antibody 1B-3440-Bt
[7] = biological target: GP73-hFc (human GP73 amino acids 63 to 400 fused at the C-terminus to human IgG1 Fc) (human); test: sandwich EIA on GP73-hFc, coated NC, second antibody 1A-4246-Bt
[8] = biological target: GP73-hFc (human GP73 amino acids 63 to 400 fused at the C-terminus to human IgG1 Fc) (human); test: sandwich EIA on GP73-hFc, coated 1B-3246, second antibody NC-Bt
[9] = biological target: GP73-hFc (human GP73 amino acids 63 to 400 fused at the C-terminus to human IgG1 Fc) (human); test: sandwich EIA on GP73-hFc, coated NC, second antibody 1B-4863-Bt
[10] = biological target: GP73-hFc (human GP73 amino acids 63 to 400 fused at the C-terminus to human IgG1 Fc) (human); test: sandwich EIA on GP73-hFc, coated 1B-4971, second antibody NC-Bt
[11] = biological target: GP73-hFc (human GP73 amino acids 63 to 400 fused at the C-terminus to human IgG1 Fc) (human); test: sandwich EIA on GP73-hFc, coated 1B-3440, second antibody NC-Bt
[12] = biological target: GP73-hFc (human GP73 amino acids 63 to 400 fused at the C-terminus to human IgG1 Fc) (human); test: sandwich EIA on GP73-hFc, coated NC, second antibody NC-Bt
[13] = biological target: GP73-hFc (human GP73 amino acids 63 to 400 fused at the C-terminus to human IgG1 Fc) (human); test: sandwich EIA on GP73-hFc, coated NC, second antibody 1B-4971-Bt

GP73-hFc (human GP73 amino acids 63 to 400 fused at the C-terminus to human IgG1 Fc) (human), sequence (chain, as listed by the source limits assumed): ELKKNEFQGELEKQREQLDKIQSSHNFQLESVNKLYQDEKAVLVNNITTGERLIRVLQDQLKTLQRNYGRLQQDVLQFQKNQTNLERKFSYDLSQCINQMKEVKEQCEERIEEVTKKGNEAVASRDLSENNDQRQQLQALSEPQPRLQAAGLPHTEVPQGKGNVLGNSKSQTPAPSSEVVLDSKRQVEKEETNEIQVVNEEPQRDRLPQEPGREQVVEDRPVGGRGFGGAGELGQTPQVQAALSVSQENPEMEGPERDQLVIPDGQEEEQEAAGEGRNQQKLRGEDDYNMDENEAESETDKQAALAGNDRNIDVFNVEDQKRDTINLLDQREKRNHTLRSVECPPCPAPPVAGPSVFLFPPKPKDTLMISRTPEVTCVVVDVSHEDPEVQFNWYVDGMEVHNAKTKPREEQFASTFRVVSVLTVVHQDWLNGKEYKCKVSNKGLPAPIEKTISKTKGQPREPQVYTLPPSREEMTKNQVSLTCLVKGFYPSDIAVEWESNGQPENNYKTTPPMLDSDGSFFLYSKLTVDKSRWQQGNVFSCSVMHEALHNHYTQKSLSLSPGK

Substance: negative control monoclonal antibody
- sandwich assay signal (A492) [1]: 0.06 A492
- sandwich assay signal (A492) [2]: 0.05 A492
- sandwich assay signal (A492) [3]: 0.08 A492
- sandwich assay signal (A492) [4]: 0.09 A492
- sandwich assay signal (A492) [5]: 0.06 A492
- sandwich assay signal (A492) [6]: 0.05 A492
- sandwich assay signal (A492) [7]: 0.05 A492
- sandwich assay signal (A492) [8]: 0.06 A492
- sandwich assay signal (A492) [9]: 0.05 A492
- sandwich assay signal (A492) [10]: 0.06 A492
- sandwich assay signal (A492) [11]: 3.07 A492
- sandwich assay signal (A492) [12]: 0.06 A492
- sandwich assay signal (A492) [13]: 0.06 A492
